Assay results: US20240000957A1 (published 2024)
*1 amine or outer side, *2 acyl side, *3 side chain or, on linkers, in order; H or OH if unused. Bridges are numbered along the chain shown (N, C = ends). Where no end group is shown, it is not given here. [ ]: non-standard residue; d: D form. TATA = O=C(CC[*:1])N1CN(C(=O)CC[*:2])CN(C(=O)CC[*:3])C1; Hyp = O=C(O)[C@@H]1C[C@@H](O)CN1; hArg = N=C(N)NCCCC[C@H](N)C(=O)O; βAla = NCCC(=O)O; Sar = CNCC(=O)O

Tests used:
[1] = target: T1, Human EphA2 (Ecto), C-terminal polyHis (Human, UniProt P29317 24-537); test: FP competition vs Reference Compound C (Study 2)
T1 construct: extracellular domain; R&D systems 3035-A2 or in-house
T1 sequence (P29317 24-537): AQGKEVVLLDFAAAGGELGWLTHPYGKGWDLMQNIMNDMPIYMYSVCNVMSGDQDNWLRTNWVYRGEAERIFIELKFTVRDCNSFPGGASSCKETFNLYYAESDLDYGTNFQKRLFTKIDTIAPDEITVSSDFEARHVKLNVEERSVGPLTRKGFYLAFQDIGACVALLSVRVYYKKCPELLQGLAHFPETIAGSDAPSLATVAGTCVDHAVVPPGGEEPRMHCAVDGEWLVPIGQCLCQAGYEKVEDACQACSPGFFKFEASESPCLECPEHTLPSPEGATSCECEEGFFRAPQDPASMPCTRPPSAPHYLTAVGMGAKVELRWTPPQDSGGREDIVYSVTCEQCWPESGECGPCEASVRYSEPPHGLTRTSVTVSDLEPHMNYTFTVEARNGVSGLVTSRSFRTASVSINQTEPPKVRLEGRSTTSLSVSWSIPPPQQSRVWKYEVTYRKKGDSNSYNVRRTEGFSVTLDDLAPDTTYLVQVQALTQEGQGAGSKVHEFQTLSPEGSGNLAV

Mouse EphA2 (Ecto) [2] = target: T2, Mouse EphA2 (Ecto) (Mouse, UniProt Q03145 26-538); test: FP competition vs Reference Compound C (Study 2)
T2 construct: extracellular domain; Fluorescence polarisation assays; not shown: Fc fusion (R&D Systems 639-A2) or C-terminal polyHis (Sino Biological 50586-M08H)
T2 sequence (Q03145 26-538): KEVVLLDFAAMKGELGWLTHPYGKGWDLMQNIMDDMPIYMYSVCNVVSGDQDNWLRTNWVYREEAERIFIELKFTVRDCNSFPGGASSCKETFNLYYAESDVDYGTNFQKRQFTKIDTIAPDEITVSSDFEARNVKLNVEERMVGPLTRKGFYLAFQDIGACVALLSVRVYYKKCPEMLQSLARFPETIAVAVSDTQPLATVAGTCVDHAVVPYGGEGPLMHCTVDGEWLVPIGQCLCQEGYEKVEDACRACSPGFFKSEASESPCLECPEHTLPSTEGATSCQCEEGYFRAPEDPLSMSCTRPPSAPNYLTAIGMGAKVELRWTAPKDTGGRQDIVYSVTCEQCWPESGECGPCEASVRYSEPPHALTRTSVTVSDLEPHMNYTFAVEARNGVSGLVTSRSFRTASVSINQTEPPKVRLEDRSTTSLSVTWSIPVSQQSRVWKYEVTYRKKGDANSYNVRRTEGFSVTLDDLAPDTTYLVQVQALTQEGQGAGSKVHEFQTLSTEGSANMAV

[3] = target: T3, Rat EphA2 (ligand binding), C-terminal polyHis (Rat); test: FP competition vs Reference Compound C (Study 2)
T3 construct: In-house

[4] = target: T1, Human EphA2 (Ecto), C-terminal polyHis; test: FP competition vs Reference Compound C
[5] = target: T1, Human EphA2 (Ecto), C-terminal polyHis; test: FP competition vs Reference Compound B
[6] = target: T1, Human EphA2 (Ecto), C-terminal polyHis; test: FP competition vs Reference Compound C; remark: listed apart in the source
Mouse EphA2 (Ecto) [7] = target: T2, Mouse EphA2 (Ecto); test: FP competition vs Reference Compound C
[8] = target: T1, Human EphA2 (Ecto), C-terminal polyHis; test: FP competition vs Reference Compound C (Study 2); remark: listed apart in the source
[9] = target: T1, Human EphA2 (Ecto), C-terminal polyHis; test: FP competition vs Reference Compound A

B1: BCY6061 (peptide)
peptide: AXDCPLVNPLCLHPGWTC
modifications: not fully specified; as BCY6014 (N-terminal (β-Ala)-Sar10; HArg; TATA scaffold on the 3 Cys) + ValLys-MMAE
notes: Bicycle drug conjugate (BDC)
Ki [1]: 12 nM
Ki (Mouse EphA2 (Ecto) [2]): 32.3 nM
Ki [3]: 14.2 nM

B2: Compound 31 (peptide)
peptide: ACSPTPACAVQNLCA
modifications: linker 2-8-14 via TATA; not fully specified (C-terminus)
Ki [4]: 223 nM
Ki [5]: 177 nM

B3: BCY6031 (peptide)
peptide: AXDCPLVNPLCLHPGWTC
modifications: not fully specified; as BCY6014 (N-terminal (β-Ala)-Sar10; HArg; TATA scaffold on the 3 Cys) + DM1-SS-
notes: Bicycle drug conjugate (BDC)
Ki [1]: 12.5 nM
Ki (Mouse EphA2 (Ecto) [2]): 35.1 nM
Ki [3]: 20 nM
Ki [6]: 12.6 nM
Ki (Mouse EphA2 (Ecto) [7]): 34.7 nM

B4: BCY6107 (peptide)
peptide: AXDCPLVNPLCLHPGWTC
modifications: not fully specified; as BCY6014 (N-terminal (β-Ala)-Sar10; HArg; TATA scaffold on the 3 Cys) + MMAE-Glu-Pro-Cit-Gly-hPhe-Tyr-Leu-
notes: Bicycle drug conjugate (BDC)
Ki [8]: 19.2 nM

B5: BCY6105 (peptide)
peptide: AXDCPLVNPLCLHPGWTC
modifications: not fully specified; as BCY6014 (N-terminal (β-Ala)-Sar10; HArg; TATA scaffold on the 3 Cys) + MMAE-Ala-Ala-Asn
notes: Bicycle drug conjugate (BDC)
Ki [8]: 8.86 nM

B6: BCY6032 (peptide)
peptide: AXDCPLVNPLCLHPGWTC
modifications: not fully specified; as BCY6014 (N-terminal (β-Ala)-Sar10; HArg; TATA scaffold on the 3 Cys) + DM1-SS-(Me)-
notes: Bicycle drug conjugate (BDC)
Ki [1]: 11.4 nM
Ki (Mouse EphA2 (Ecto) [2]): 35.9 nM
Ki [6]: 11.4 nM
Ki (Mouse EphA2 (Ecto) [7]): 35.9 nM

B7: Compound 30 (peptide)
peptide: ACQPSNHCAFMNYCA
modifications: linker 2-8-14 via TATA
Ki [5]: 187 nM
Ki [9]: 137 nM

B8: BCY6106 (peptide)
peptide: AXDCPLVNPLCLHPGWTC
modifications: not fully specified; as BCY6014 (N-terminal (β-Ala)-Sar10; HArg; TATA scaffold on the 3 Cys) + MMAE-D-Ala-Phe-Lys-
notes: Bicycle drug conjugate (BDC)
Ki [8]: 12.9 nM

B9: BCY6039 (peptide)
peptide: AXDCPLVNPLCLHPGWTC
modifications: not fully specified; as BCY6014 (N-terminal (β-Ala)-Sar10; HArg; TATA scaffold on the 3 Cys) + DM1-(Me)-SS-(Me)-
notes: Bicycle drug conjugate (BDC)
Ki [8]: 9.4 nM

B10: Compound 32 (peptide)
peptide: ACTSCWAYPDSFCA
modifications: linker 2-5-13 via TATA; not fully specified (C-terminus)
Ki [4]: 232 nM
Ki [9]: 151 nM

B11: BCY6173 (peptide)
peptide: [βAla][Sar][Sar][Sar][Sar][Sar][Sar][Sar][Sar][Sar][Sar]A[hArg]DC[Hyp]LVNPLCLHP[dD]W[hArg]C
modifications: linker 15-22-29 via TATA; not fully specified (N-terminus, C-terminus); numbers in words are those of the source; also: DM1-SS(SO3H)- conjugate, site not given here
notes: Bicycle drug conjugate (BDC)
Ki [3]: 2.5 nM

B12: Compound 29 (peptide)
peptide: ACYVGKECAYMNVCA
modifications: linker 2-8-14 via TATA; not fully specified (C-terminus)
Ki [4]: 210 nM
Ki [5]: 107 nM
Ki [9]: 87.7 nM
